Substitutions are numbered along the chain they refer to.
Columns and labels:
[1] = target: T1, ETA WT (Homo sapiens, UniProt P25101); assay: Calcium mobilization assay, antagonist mode (ET-1 stimulated), CHO-K1 cells; type: cell-based
T1 construct: expressed in transfected cells; host or cells: CHO-K1
T1 sequence (P25101 21-427): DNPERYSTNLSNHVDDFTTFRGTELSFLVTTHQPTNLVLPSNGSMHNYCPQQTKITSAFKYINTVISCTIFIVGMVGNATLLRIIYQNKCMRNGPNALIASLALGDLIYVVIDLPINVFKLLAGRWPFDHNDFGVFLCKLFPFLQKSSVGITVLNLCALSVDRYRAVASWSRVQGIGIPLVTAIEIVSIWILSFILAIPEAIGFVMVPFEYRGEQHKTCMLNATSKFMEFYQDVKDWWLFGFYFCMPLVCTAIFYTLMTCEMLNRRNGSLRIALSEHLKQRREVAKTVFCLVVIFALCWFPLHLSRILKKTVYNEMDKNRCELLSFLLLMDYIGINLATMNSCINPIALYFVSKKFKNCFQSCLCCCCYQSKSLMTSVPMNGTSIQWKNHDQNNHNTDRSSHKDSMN
Method: CHO-K1 cells were cultured in Ham’s F-12K (Kaighn’s) Medium (Gibco-Thermo Fisher Scientific) supplemented with 10% (v/v) fetal bovine serum (FBS; Gibco-Thermo Fisher Scientific), and 100 U/mL Penicillin-Streptomycin (Gibco-Thermo Fisher Scientific) in a humidified incubator at 37 °C with 5% CO2. Cells were seeded in 6-cm dishes overnight; when the density reached 60%–80%, the cells were transferred to F12K Medium supplemented with 10% FBS and transfected with 1.5 μg DNA encoding the ETA WT or mutants or 3 μg DNA encoding the ETB WT or mutants using TransIT2020 (Mirus Biosciences). The next day, transfected cells were harvested from the plate using Versene buffer (Gibco-Thermo Fisher Scientific) and seeded into black-sided, clear-bottomed 384-well plates (Agilent) at a density of 1,5000 cells per well. After 20 h, the 1% dFBS medium was removed, and cells were loaded with 20 μL/well of 1× Calcium 6 dye (Molecular Devices) and incubated at 37 °C for 1 h in the dark. […] All data were analyzed using GraphPad Prism 8 and the data are from at least three independent replicate experiments. All plots are shown as means ± SEM. Data were determined using one-way ANOVA followed by Dunnett’s multiple test compared with WT. The top value was normalized to 100% and the bottom value was normalized to 0% for the final presentation. […]

[2] = target: T2, ETA G233^ECL2A (Homo sapiens, UniProt P25101, G233A); assay: Size exclusion chromatography analysis of Fab301 binding; details: ETA G233^ECL2A mutant vs WT
T2 construct: expressed in transfected cells; host or cells: CHO-K1
T2 sequence (P25101 21-427 G233A): T1 sequence (P25101 21-427) with G213A
From the text: (§1) To pinpoint the exact ECL2 residues involved in binding, we performed an extensive alanine scanning mutagenesis. Our size exclusion chromatography analysis identified that the region spanning residues 230^ECL2–235^ECL2 in ETA, and in particularly, residues R232^ECL2 and G233^ECL2, are crucial for Fab301 binding. […] Moreover, the hydrophobic interactions at this interface are crucial for antibody binding, as confirmed by our calcium mobilization assay on Fab301 (Supplementary Fig. S9b). Within this model, E230^ECL2 establishes hydrogen bonds with the CDRL1 and CDRL2 regions of Fab301, whereas Y231^ECL2 and E234^ECL2, together with R232^ECL2, participate in a complex hydrogen bond network within the CDRH3 region of Fab301 (Fig. 6c).

[3] = target: T3, ETA R232^ECL2A (Homo sapiens, UniProt P25101, R232A); assay: as above; details: ETA R232^ECL2A mutant vs WT
T3 construct: expressed in transfected cells; host or cells: CHO-K1
T3 sequence (P25101 21-427 R232A): T1 sequence (P25101 21-427) with R212A
From the text: as §1

B1: Fab301: ETA-specific antibody Fab fragment produced from Getagozumab (antibody, V domains shown)
VH: QVTLKESGPTLVKPTQTLTLTCTFSGFSLTTSGLGVAWIRQPPGKALEWLAHIWSDGDTRYYPALKNRLTITKDTSKNQVVLTMTNMDPVDTATYYCAHMKDDSLYFDNWGQGTLVTVSS
VL: EIVLTQSPDFQSVTPKEKVTITCRASQNIGTSIHWYQQKPDQYPKLLIKYASKSISGVPSRFSGSGSGTDFTLTINSLEAEDAATYYCQHSYSFPWTFGQGTKVEIK
Effect on ET-1-induced ETA signaling [1]: antagonistic effects | Fab301's binding to ETA [2]: near-complete loss | Fab301's binding to ETA [3]: near-complete loss

Source: publication PMC11286772, “Structural basis of antagonist selectivity in endothelin receptors” (Cell Discovery, 2024)
